Laboratory results from publication PMC6750725.

Target: A/equine/NY/49/73 H7N7 hemagglutinin (crystallization construct) (influenza A virus A/equine/NY/49/73 (H7N7))
Test: SEC

Substance: A/equine/NY/49/73 H7N7 hemagglutinin (crystallization construct) (natural protein)
- stoichiometry N: 3
